According to the supplement of paper PMC12764529:
± gives the half width of the 95% confidence interval.

Columns and labels:
[1] = folding stability dG unfold from trypsin proteolysis; higher = more stable
In short: (§1)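 Designed mini-proteins with no cysteine and under 80 residues were kept only if AlphaFold2 dimer inter-PAE was above 15. In a PA-tagged cDNA display construct, they were digested with trypsin and chymotrypsin and then sequenced. K50 was inferred by Bayesian fitting of counts, and unfolding free energy was derived per protease or combined against a sequence-predicted unfolded-state K50 and a shared folded-state K50.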

[2] = folding stability dG unfold from chymotrypsin proteolysis; higher = more stable
In short: as §1

[3] = folding stability dG unfold (combined trypsin and chymotrypsin); higher = more stable
In short: as §1

Sequence | folding stability dG unfold [1] [kcal/mol] | folding stability dG unfold [2] [kcal/mol] | folding stability dG unfold [3] [kcal/mol]
SAGGSAGGSAAPVVREIEIDLPYPDGSPLTVEKVTEEPAPGTVHYEIKLPDGTVITRTVPTFSAGGSAGGSA [r18_370_JUSTAS] | -0.92 ± 0.3 | -1.03 ± 0.39 | -0.797 ± 0.24
SAGGSAGGSAGGVIVLKSDNSVIIITKKVYTENGKPKKTIIEKKNLKKKPPKPLSIEIISAGGSAGGSAGGS [r10_1043_JUSTAS] | 0.77 ± 0.067 | 0.374 ± 0.27 | 0.681 ± 0.15
SAGGKELILKLKIEVNGKTLTIEVKVSPEELKKLLDELKKLGIKEIEIESIEFDKETNEIKVKVKVKSAGGS [r8_219_TrROS_Hall] | 2.52 ± 0.063 | 4.09 ± 0.17 | 3.77 ± 0.15
SAGGKPKEIKIKVEVEEKEVNGKKYLVVKIELEVDGKKIEIELVVEMSEEEKEKAKKLAEELLKKLKSAGGS [r8_480_TrROS_Hall] | 2.6 ± 0.21 | 2.77 ± 0.22 | 2.82 ± 0.4
SAGGSAMDAKVVDLSLPFTLSEDGSLTATVTIEFPDGSKVPIEIPGREDGELKLEEILAAAKEALGSAGGSA [r15_233_TrMRF] | 0.553 ± 0.093 | 0.27 ± 0.069 | 0.478 ± 0.14
SITIMVDNLPPGATAEELASTLFNWIQQFGWEVTPIKITPMPDNWVTVEIEFKNNGKPIFRETIEFRPDASA [r9_953_TrROS] | 2.4 ± 0.092 | 3.56 ± 0.06 | 3.26 ± 0.09
SAGGSAMREIRVGDTVVRILSIDPSTGEVHIAVREDLPPETIEAARRALEEAGLRFRVEPVPEELLSAGGSA [r15_570_TrMRF] | 1.73 ± 0.065 | 2.33 ± 0.028 | 2.15 ± 0.053
SAGGSAGGSAGGGMESKTTVTEEFSPEEVKTVTTVTTYPDGSVTETPENVKVPPGALAGSAGGSAGGSAGGS [r10_280_JUSTAS] | 0.1 ± 0.053 | 1.92 ± 0.13 | 1.49 ± 0.11
SIINALREALKDGKPGQEIPIMMPPDGMGELMNWLQDYGFKPKKMEPMPMNNRPMYTHEFTIDPKNGKFRSA [r9_498_TrROS] | -0.0613 ± 0.39 | 0.26 ± 0.26 | 0.0967 ± 0.29
SAGSVEIKESSLPDSTIITITIPYTSPEEAPERIERLLKELGLSENVQVIEVKYEPSPPVVTVKIKIESAGG [r19_186_JUSTAS] | 2.41 ± 0.077 | 3.21 ± 0.09 | 2.99 ± 0.12
SAMKYTVKLPPGAEPIQPEELAALPYVEVVEVEISDGEDGTRTLTITVSPDVPEENVEKLKEYIEKKLKSAG [r14_421_JUSTAS] | 2.93 ± 0.077 | 3.17 ± 0.043 | 3.12 ± 0.085
STTEVEVTPLPGNSTLVTTTTTTPEFDPANGTIRYTSETTTTTITYTPGTTEPTTTTTTTTTTTTIPATTSA [r9_140_JUSTAS] | 0.639 ± 0.062 | 0.813 ± 0.12 | 0.814 ± 0.14
SAELLEELLKKAREEAEKEGKKVEIHLVLVVEKDENGKVTFTEEEKELIKKLKEAFPDVEIKIEVVELPSAG [r14_636_TrROS_Hall] | 2.83 ± 0.18 | 3.45 ± 0.16 | 3.28 ± 0.13
MKPLTPDEVKELAKFIANMIRRRMRENGIKDVEIPVKVEPDPNGWYWINVSITFKYNGKPIGRFPIEIWVRS [r1_364_TrROS] | 3.17 ± 0.045 | 3.781 ± 0.019 | 3.57 ± 0.074
SAGGGMSVSELKKFFPNLKPGATFVLKDPNSDRTGTGTLLSDGTIKVQLPGSEVTVPDDTLVVSISASAGGS [r8_162_JUSTAS] | 0.585 ± 0.043 | -0.237 ± 0.27 | 0.321 ± 0.13
SAGGSAGGSAMITTPKGERFEVPLRLTPDGRLEVLVVTDRPDDPEVRELAERLARELAERLSAGGSAGGSAG [r3_163_TrMRF] | 0.506 ± 0.11 | 0.394 ± 0.17 | 0.484 ± 0.14
SAGGGPLRTVEVELEFETEEEAEKAIKEYLEKLGLPPEKVEVSFVSREERLVEDKIVYRYKFVFTLPSAGGS [r16_240_JUSTAS] | 4.09 ± 0.13 | 5.13 ± 0.13 | 4.98 ± 0.17
SAGGSEEEIKKKIEEIAKKRGTKIKSITIKKLPDGSLLATVTLEDNPNTTIEFKVEKNKVEITKINKSAGGS [r8_432_JUSTAS] | 1.73 ± 0.068 | 2.93 ± 0.051 | 2.61 ± 0.066
SAGGSAGGSKPDEVEVIEIKVPPGARVRLPDGSVVEIKPGDPNTTYRIVVDKKNKKITIEPLDSAGGSAGGS [r12_338_TrROS_Hall] | 1.38 ± 0.12 | 1.43 ± 0.12 | 1.46 ± 0.27
SAGFLGFGIEPHPNGWFKIEIMVMFPWPGGWFMFSIDITIPIVPIEPPPPPPVVEPKKENGKPKEWKYDSAG [r5_169_TrROS] | 1.91 ± 0.13 | 3.38 ± 0.25 | 2.74 ± 0.51
SAGGDDKWKIEIDIQPHDDYWVITARIRDPNGKERERMFMMPPDNIKKILNELPPEIEDIEVHRVPNSAGGS [r16_298_TrROS] | 2.11 ± 0.074 | 2.72 ± 0.045 | 2.53 ± 0.17

Sequence | folding stability dG unfold [1] [kcal/mol] | folding stability dG unfold [2] [kcal/mol] | folding stability dG unfold [3] [kcal/mol]
SASASQTTIEYTVPVPAGTSPDEPLTLTVTLPDKEIPIEVGTLENLPPDATVTITLDTTEPTFTVTLTPSAG [r14_554_JUSTAS] | 1.52 ± 0.051 | -0.451 ± 0.23 | 0.799 ± 0.096
SAGGSAGGSAGGSSIRIWIFFPGYFFRITIKPDPGNPNMIKIDITEIIPPDQMDDEDLISAGGSAGGSAGGS [r4_316_TrROS] | 3.53 ± 0.26 | 4.38 ± 0.14 | 4.38 ± 0.3
SAGGSAPSPEVPLWRFEAPGASGGVALIEGYPGGELRVVFFTDDGRPVELTFPVVVLPPAPLEELFSAGGSA [r15_478_TrMRF] | 1.51 ± 0.039 | 1.24 ± 0.086 | 1.38 ± 0.075
SAGGESTPEIEPVATLELPTPDGRPITVEVYRLKDGTVRVVVRNPNPPETITLTIPAKEGETIPIFLSAGGS [r16_566_TrMRF] | 1.9 ± 0.04 | 2.2 ± 0.045 | 2.11 ± 0.067
MKTITITVTDAPPGTVTIRVEIEREDGSTIEIEKEITVKPGDTITITLKEDEPYKIKKIEIYHNGKKIEITS [r1_70_TrROS_Hall] | 2.58 ± 0.15 | 3.81 ± 0.1 | 3.76 ± 0.33
SAKKVPKIEKIEFIPGPNLVKITIPVPEKDKLLVTIDLKDKKLEFELKKNTSFYFSAKYADIKVSVEKKSAG [r14_96_TrMRF] | 2.28 ± 0.16 | 3.11 ± 0.14 | 3 ± 0.2
SAGGSAGGSKKVKIIEIDLKDMSPEEILELIKKEKVDAIIIKSDTPEAKRLAEKLKEAGFKVISAGGSAGGS [r12_610_TrROS_Hall] | 1.46 ± 0.043 | 2.36 ± 0.055 | 2.05 ± 0.059
SAGGSAGGGMSLEAPIGEIEKPEGTDTVVITVYENGKWHTIPLPNFKNIKIEKDPNSDVVTILLSAGGSAGG [r6_806_JUSTAS] | 1.29 ± 0.1 | 1.71 ± 0.13 | 1.52 ± 0.18
SAMRAAVLAAAEEITAHPEFEAVGISPDGTFLFRNPATGKVYRIRLEAEDDGEGVIVRVPSIEPLDAPDSAG [r14_20_TrMRF] | 1.43 ± 0.028 | 1.92 ± 0.051 | 1.75 ± 0.087
SAGGMKTLKIKIKVPEDEEKAEELAKKLEELFGLKVEVEKKDGELTITVEVSEEVRELLKELGVEIEPSAGG [r13_156_TrROS_Hall] | 2.58 ± 0.16 | 4.15 ± 0.089 | 3.79 ± 0.16
SAGGSAGGSAAKPIPFTITSVSVPTAPDGKKYAVVEISFPGSGAKAWAVYDIDDPYIKEAGSAGGSAGGSAG [r3_57_TrMRF] | 0.804 ± 0.095 | 1.71 ± 0.15 | 1.37 ± 0.1
SAGGSAGGSAGAKVKVFKVRAEVKLTRTADGELVAEVTEVEIEEVEVEVRPPPPPPLPPASAGGSAGGSAGG [r11_381_TrROS_Hall] | 1.67 ± 0.24 | 3.11 ± 0.14 | 2.92 ± 0.35
SAGGSAGGSAKAKIKKVEVEKEGDKLRVTAEIELEDGYVLKVSFEFKDDEIKMEIEIVPLKDSAGGSAGGSA [r18_79_TrROS_Hall] | 3.02 ± 0.32 | 3.38 ± 0.29 | 3.22 ± 0.48
SAGGSAGGSSKNGKPKPTIKVEMPDKPGPHEIPIPESDPDEAKTLAEELAQKWPGVPVRIEPTSAGGSAGGS [r12_601_TrROS] | -0.293 ± 0.1 | 0.989 ± 0.057 | 0.582 ± 0.13
SAGMSMSVSVTKDPNSNSITIKVTMPVEPDAVLDLPIKVEVPEKEYEMTVEVTLSPDGLASMTGTITLPSAG [r5_596_JUSTAS] | 2.74 ± 0.15 | 2.04 ± 0.056 | 2.41 ± 0.18
SAGGSAGGSAGMVLRVRTKDGKVIEIKDLSEELKNMTAEQLAEELKKKFPDLKIEVEEVPSAGGSAGGSAGG [r17_42_TrROS_Hall] | 2.19 ± 0.14 | 2.26 ± 0.05 | 2.37 ± 0.15
SAMTITVPPDVSLEQIAKLLGYPNLKSFTKRKVTPNLTPATLTVPEDPNKVIKVLYRPADNYTEVIVLQSAG [r14_713_JUSTAS] | 1.02 ± 0.1 | 0.822 ± 0.3 | 0.921 ± 0.16
SAGGSAGGGMLNGLLEKLLLAEPVEVDPVTTTVTPSPNGTVTTTPVYSTADDSVLTETQTTPVASAGGSAGG [r6_326_JUSTAS] | 0.341 ± 0.057 | -0.574 ± 0.19 | -0.0634 ± 0.14
SAGGSAGGSPPMKTYEHWIRFDSPEQAVEEVANHIQDHFGLEIKSVEIEYDPENGWVRVKIVISAGGSAGGS [r12_265_TrROS] | 2.71 ± 0.075 | 3.449 ± 0.029 | 3.12 ± 0.14
SAGGKKETVKVTLEIEVNGKKYKIELTKNKDGTVTIKITDKNGKKIEIEIPMSPEDVKKLLEELLKKLSAGG [r13_296_TrROS_Hall] | 2.17 ± 0.11 | 3.93 ± 0.094 | 3.56 ± 0.076
SAGGSAGGSAEPVRLVVVTPGFPDGPPIPVEELEALLEAEDVTVVDPFTIPELGYVVLLVEASAGGSAGGSA [r18_466_TrMRF] | 1.4 ± 0.048 | 0.728 ± 0.092 | 1.07 ± 0.1
